Measurements reported in patent publication US11485769B2, “Peptides and combination of peptides for use in immunotherapy and methods for generating scaffolds for the use against pancreatic cancer and other cancers” (Immatics Biotechnologies GmbH, priority 2015, dated 2022).

biological target: HLA-A*02:01 (Homo sapiens, UniProt P04439, D140Y/D185E/D98H/E176V/E277Q/G131W/G231S/I119V/I121R/I166T/I218V/L300P/L318F/N151K/N90K/P208A/P217A/Q86G/Q94H/R138H/R169H/T345S); experiment: MHC binding assay (UV-ligand exchange, beta2m ELISA, peptide exchange yield); settings: binding to HLA-A*02:01 ranged by peptide exchange yield, β2m ELISA
Excerpt: Candidate peptides for T cell based therapies according to the present invention were further tested for their MHC binding capacity (affinity). The individual peptide-MHC complexes were produced by UV-ligand exchange, where a UV-sensitive peptide is cleaved upon UV-irradiation, and exchanged with the peptide of interest as analyzed. Only peptide candidates that can effectively bind and stabilize the peptide-receptive MHC molecules prevent dissociation of the MHC complexes. To determine the yield of the exchange reaction, an ELISA was performed based on the detection of the light chain (β2m) of stabilized MHC complexes. The assay was performed as generally described in Rodenko et al. (Rodenko et al., 2006).
96 well MAXISorp plates (NUNC) were coated over night with 2 ug/ml streptavidin in PBS at room temperature, washed 4× and blocked for 1 h at 37° C. in 2% BSA containing blocking buffer. Refolded HLA-A*02:01/MLA-001 monomers served as standards, covering the range of 15-500 ng/ml. Peptide-MHC monomers of the UV-exchange reaction were diluted 100 fold in blocking buffer. Samples were incubated for 1 h at 37° C., washed four times, incubated with 2 ug/ml HRP conjugated anti-μ2m for 1h at 37° C., washed again and detected with TMB solution that is stopped with […]. Absorption was measured at 450 nm. Candidate peptides that show a high exchange yield (preferably higher than 50%, most preferred higher than 75%) are generally preferred for a generation and production of antibodies or fragments thereof, and/or T cell receptors or fragments thereof, as they show sufficient avidity to the MHC molecules and prevent dissociation of the MHC complexes.
MHC class I binding scores. Binding of HLA-class I restricted peptides to HLA-A*02:01 was ranged by peptide exchange yield: ≥10%=+; ≥20%=++; ≥50=+++; >75%=++++

| Substance | Peptide exchange (MHC class I binding score) |
| --- | --- |
| 32 (YVDDGLISL; listed as Homo sapiens) [compound 32] | “++” (≥20%=++) |
| 34 (FLEDDDIAAV; listed as Homo sapiens) [compound 34] | “++” (≥20%=++) |
| 35 (FLFPSQYVDV; listed as Homo sapiens) [compound 35] | “+++” (≥50=+++) |
| 36 (FLGDLSHLL; listed as Homo sapiens) [compound 36] | “++” (≥20%=++) |
| 37 (FLNPDEVHAI; listed as Homo sapiens) [compound 37] | “++” (≥20%=++) |
| 38 (FLTEAALGDA; listed as Homo sapiens) [compound 38] | “+++” (≥50=+++) |
| 39 (FLTPSIFII; listed as Homo sapiens) [compound 39] | “++” (≥20%=++) |
| 40 (GLAPQIHDL; listed as Homo sapiens) [compound 40] | “++” (≥20%=++) |
| 41 (GLLAGNEKLTM; listed as Homo sapiens) [compound 41] | “++” (≥20%=++) |
| 42 (ILSDMRSQYEV; listed as Homo sapiens) [compound 42] | “+++” (≥50=+++) |
| 43 (HLGVKVFSV; listed as Homo sapiens) [compound 43] | “++” (≥20%=++) |
| 44 (ILAQVGFSV; listed as Homo sapiens) [compound 44] | “+++” (≥50=+++) |
| 45 (ILYSDDGQKWTV; listed as Homo sapiens) [compound 45] | “+++” (≥50=+++) |
| 46 (TMVEHNYYV; listed as Homo sapiens) [compound 46] | “+++” (≥50=+++) |
| 47 (LIYKDLVSV; listed as Homo sapiens) [compound 47] | “+++” (≥50=+++) |
| 48 (LLDENGVLKL; listed as Homo sapiens) [compound 48] | “+++” (≥50=+++) |
| 49 (LLDGFPRTV; listed as Homo sapiens) [compound 49] | “++” (≥20%=++) |
| 50 (LLFGSDGYYV; listed as Homo sapiens) [compound 50] | “+++” (≥50=+++) |
| 51 (LLGPAGARA; listed as Homo sapiens) [compound 51] | “++” (≥20%=++) |
| 52 (LLSDPIPEV; listed as Homo sapiens) [compound 52] | “+++” (≥50=+++) |
| 53 (LLWDPSTGKQV; listed as Homo sapiens) [compound 53] | “+++” (≥50=+++) |
| 54 (LTQPGPIASA; listed as Homo sapiens) [compound 54] | “+++” (≥50=+++) |

| Substance | Peptide exchange (MHC class I binding score) |
| --- | --- |
| 55 (NLAPAPLNA; listed as Homo sapiens) [compound 55] | “++” (≥20%=++) |
| 56 (NLIGVTAEL; listed as Homo sapiens) [compound 56] | “++” (≥20%=++) |
| 57 (RLSELGITQA; listed as Homo sapiens) [compound 57] | “+++” (≥50=+++) |
| 58 (RQYPWGVVQV; listed as Homo sapiens) [compound 58] | “++” (≥20%=++) |
| 59 (SLSESFFMV; listed as Homo sapiens) [compound 59] | “+++” (≥50=+++) |
| 60 (SLWEDYPHV; listed as Homo sapiens) [compound 60] | “++++” (>75%=++++) |
| 61 (SMYDGLLQA; listed as Homo sapiens) [compound 61] | “++” (≥20%=++) |
| 62 (SVFPGARLL; listed as Homo sapiens) [compound 62] | “+” (≥10%=+) |
| 63 (SVTGIIVGV; listed as Homo sapiens) [compound 63] | “++++” (>75%=++++) |
| 64 (TLFSEPKFAQV; listed as Homo sapiens) [compound 64] | “++++” (>75%=++++) |
| 65 (TLNEKLTAL; listed as Homo sapiens) [compound 65] | “+++” (≥50=+++) |
| 67 (VIWGTDVNV; listed as Homo sapiens) [compound 67] | “++++” (>75%=++++) |
| 68 (VLFDVTGQV; listed as Homo sapiens) [compound 68] | “+++” (≥50=+++) |
| 69 (VLFSGSLRL; listed as Homo sapiens) [compound 69] | “+++” (≥50=+++) |
| 70 (VLGVIWGV; listed as Homo sapiens) [compound 70] | “++++” (>75%=++++) |
| 71 (VLLPEGGITAI; listed as Homo sapiens) [compound 71] | “+++” (≥50=+++) |
| 72 (VMASPGGLSAV; listed as Homo sapiens) [compound 72] | “+++” (≥50=+++) |
| 73 (VMVDGKPVNL; listed as Homo sapiens) [compound 73] | “++++” (>75%=++++) |
| 74 (YIDKDLEYV; listed as Homo sapiens) [compound 74] | “+++” (≥50=+++) |
| 77 (RLFPGSSFL; listed as Homo sapiens) [compound 77] | “++++” (>75%=++++) |
| 78 (SLQDTEEKSRS; listed as Homo sapiens) [compound 78] | “+++” (≥50=+++) |
| 79 (VVYEGQLISI; listed as Homo sapiens) [compound 79] | “+++” (≥50=+++) |

| Substance | Peptide exchange (MHC class I binding score) |
| --- | --- |
| 80 (LLPGTEYVVSV; listed as Homo sapiens) [compound 80] | “+++” (≥50=+++) |
| 81 (VVYDDSTGLIRL; listed as Homo sapiens) [compound 81] | “+++” (≥50=+++) |
| 82 (ALIAEGIAL; listed as Homo sapiens) [compound 82] | “+++” (≥50=+++) |
| 83 (ALSKEIYVI; listed as Homo sapiens) [compound 83] | “+++” (≥50=+++) |
| 84 (FILPIGATV; listed as Homo sapiens) [compound 84] | “++++” (>75%=++++) |
| 85 (FLSDGTIISV; listed as Homo sapiens) [compound 85] | “++++” (>75%=++++) |
| 86 (GLGDFIFYSV; listed as Homo sapiens) [compound 86] | “++++” (>75%=++++) |
| 87 (GLLPALVAL; listed as Homo sapiens) [compound 87] | “+++” (≥50=+++) |
| 88 (IIDDTIFNL; listed as Homo sapiens) [compound 88] | “+++” (≥50=+++) |
| 89 (KLADIQIEQL; listed as Homo sapiens) [compound 89] | “+++” (≥50=+++) |
| 90 (KLLTPITTL; listed as Homo sapiens) [compound 90] | “+++” (≥50=+++) |
| 91 (LLFNDVQTL; listed as Homo sapiens) [compound 91] | “+++” (≥50=+++) |
| 92 (YLTNEGIAHL; listed as Homo sapiens) [compound 92] | “++++” (>75%=++++) |
| 93 (SIDSEPALV; listed as Homo sapiens) [compound 93] | “+++” (≥50=+++) |
| 94 (VMMEEFVQL; listed as Homo sapiens) [compound 94] | “+++” (≥50=+++) |
| 95 (ALADDDFLTV; listed as Homo sapiens) [compound 95] | “+++” (≥50=+++) |
| 96 (ALAPATGGGSLLL; listed as Homo sapiens) [compound 96] | “+++” (≥50=+++) |
| 97 (ALDDMISTL; listed as Homo sapiens) [compound 97] | “+++” (≥50=+++) |
| 98 (ALDQKVRSV; listed as Homo sapiens) [compound 98] | “++” (≥20%=++) |
| 99 (ALESFLKQV; listed as Homo sapiens) [compound 99] | “+++” (≥50=+++) |
| 100 (ALFGAGPASI; listed as Homo sapiens) [compound 100] | “+++” (≥50=+++) |
| 101 (ALVEENGIFEL; listed as Homo sapiens) [compound 101] | “+++” (≥50=+++) |
